The data set deals with RNaseH2 complex (RNaseH2A/RNaseH2B/RNaseH2C), wild type;PCNA (Homo sapiens;Homo sapiens, UniProt O75792;Q5TBB1;Q8TDP1;P12004 1-299;1-312;1-164;1-261, |). Put plainly: EMSA; 100 nM PCNA; 2 mM MgCl2; 100 nM DNA; 0.4-1.0 uM RNaseH2; PCNA raises binding (p 0.025, 0.010, 0.003 at 0.6, 0.8, 1.0 uM; ns at 0.4 uM); EMSA: 25 mM Tris pH 7.5, 100 mM NaCl, 10% glycerol, 2 mM MgCl2, 30 min at RT; 5% native TBE-PAGE at 4 C. Cryo-EM structures (8YJH-8YJZ) carry endogenous DNA of. The note with it: protein: recombinant;recombinant; tags: N-terminal 6xHis (each subunit as stated);N-terminal 6xHis; copies: 1;1;1;3; blunt.
RNaseH2 complex (RNaseH2A/RNaseH2B/RNaseH2C), wild type;PCNA, sequence (O75792 whole entry, chain 1 of 4): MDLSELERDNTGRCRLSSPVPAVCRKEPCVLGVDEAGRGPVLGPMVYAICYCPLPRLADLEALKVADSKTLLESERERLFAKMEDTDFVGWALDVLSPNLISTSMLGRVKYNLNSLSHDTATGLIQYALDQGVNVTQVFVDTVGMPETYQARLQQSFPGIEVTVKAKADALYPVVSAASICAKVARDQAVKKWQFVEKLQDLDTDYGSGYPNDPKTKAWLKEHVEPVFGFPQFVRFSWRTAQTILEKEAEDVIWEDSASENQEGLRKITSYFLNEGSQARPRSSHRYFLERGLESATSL
RNaseH2 complex (RNaseH2A/RNaseH2B/RNaseH2C), wild type;PCNA, sequence (Q5TBB1 whole entry, chain 2 of 4): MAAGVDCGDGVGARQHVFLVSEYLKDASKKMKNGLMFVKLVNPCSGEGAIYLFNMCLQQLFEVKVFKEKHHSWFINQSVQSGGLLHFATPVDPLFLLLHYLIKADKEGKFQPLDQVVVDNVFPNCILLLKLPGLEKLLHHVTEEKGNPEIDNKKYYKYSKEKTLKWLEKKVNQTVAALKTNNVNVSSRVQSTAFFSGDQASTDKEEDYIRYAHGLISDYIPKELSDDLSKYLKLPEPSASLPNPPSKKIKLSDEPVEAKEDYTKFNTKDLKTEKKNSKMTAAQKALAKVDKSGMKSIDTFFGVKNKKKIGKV
RNaseH2 complex (RNaseH2A/RNaseH2B/RNaseH2C), wild type;PCNA, sequence (Q8TDP1 whole entry, chain 3 of 4): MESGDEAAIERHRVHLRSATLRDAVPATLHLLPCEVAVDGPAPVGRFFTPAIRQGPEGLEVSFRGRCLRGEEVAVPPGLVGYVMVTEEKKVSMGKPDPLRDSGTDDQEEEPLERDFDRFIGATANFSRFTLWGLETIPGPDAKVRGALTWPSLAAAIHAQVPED
RNaseH2 complex (RNaseH2A/RNaseH2B/RNaseH2C), wild type;PCNA, sequence (P12004 whole entry, chain 4 of 4): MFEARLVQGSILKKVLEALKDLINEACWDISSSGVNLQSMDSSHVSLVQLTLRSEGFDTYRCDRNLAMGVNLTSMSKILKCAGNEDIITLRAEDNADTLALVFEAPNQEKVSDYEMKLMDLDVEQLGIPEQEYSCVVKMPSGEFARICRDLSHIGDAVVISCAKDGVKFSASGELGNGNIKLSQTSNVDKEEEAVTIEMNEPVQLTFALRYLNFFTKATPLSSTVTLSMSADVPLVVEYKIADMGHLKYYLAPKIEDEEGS

B1: 5'-FAM 20 bp dsDNA (dsDNA)
DNA 1: CGGTTATAGGTTCACGGGGT
DNA 2: ACCCCGTGAACCTATAACCG
B1: the binding result is given as “binds”.

(Values after paper PMC11731006, “Structural insight into Okazaki fragment maturation mediated by PCNA-bound FEN1 and RNaseH2”.)
